Data reported in publication PMC3017119, “Structural Basis for the Recognition of Cellular mRNA Export Factor REF by Herpes Viral Proteins HSV-1 ICP27 and HVS ORF57” (PLoS Pathogens, 2011).

B1: ICP27^1–138 (recombinant, for NMR) (domain or fragment)
chain: MATDIDMLIDLGLDLSDSDLDEDPPEPAESRRDDLESDSSGECSSSDEDMEDPHGEDGPEPILDAARPAVRPSRPEDPGVPSTQTPRPTERQGPNDPQPAPHSVWSRLGARRPSCSPEQHGGKVARLQPPPTKAQPAR
notes: HSV-1 ICP27, residues 1-138
B7: HVS ORF57^8–120 (recombinant, for NMR) (domain or fragment)
chain: GISSDDDFDSSDSSSDEEESDTSPQIMKSDVTMASPPSTPEPSPDVSASTSNLKRERQRSPITWEHQSPLSRVYRSPSPMRFGKRPRISSNSTSRSCKTSWADRVREAAAQRR
B11: REF^54–155 (recombinant, for NMR) (domain or fragment)
chain: not shown
notes: 15N- or 13C/15N-labelled or unlabelled, by experiment; also called Δ53N

Tests used:
Conditions in all cases: both partners purified
[1] = target: REF^1–155 (recombinant, for NMR) (murine, UniProt Q9JJW6 1-155); assay: NMR titration
[2] = target: B11; assay: NMR titration; […]; 30°C; […], pH 6.2
[3] = target: B1; assay: NMR titration
[4] = target: B7; assay: NMR titration; […]; 30°C; […], pH 6.2
ICP27^103–112 W105A = target: T1, ICP27^103–112 W105A (Herpes simplex virus 1, W105A (stands in the printed letters)); assay: NMR titration; […]; 30°C; […], pH 6.2
T1 construct: also called mutant peptide W105A; source: synthetic peptide (Peptide Protein Research Ltd)

ICP27^103–112 R107A = target: T2, ICP27^103–112 R107A (Herpes simplex virus 1, R107A (stands in the printed letters)); assay: NMR titration; […]; 30°C; […], pH 6.2
T2 construct: source: synthetic peptide (Peptide Protein Research Ltd)

ICP27^103–112 L108A = target: T3, ICP27^103–112 L108A (Herpes simplex virus 1, L108A (stands in the printed letters)); assay: NMR titration; […]; 30°C; […], pH 6.2
T3 construct: source: synthetic peptide (Peptide Protein Research Ltd)

HVS ORF57^103–120 W108A = target: T4, HVS ORF57^103–120 W108A (Herpesvirus Saimiri, W108A (stands in the printed letters)); assay: NMR titration; […]; 30°C; […], pH 6.2
T4 construct: source: synthetic peptide (Peptide Protein Research Ltd)

HVS ORF57^103–120 R111A = target: T5, HVS ORF57^103–120 R111A (Herpesvirus Saimiri, R111A (stands in the printed letters)); assay: NMR titration; […]; 30°C; […], pH 6.2
T5 construct: source: synthetic peptide (Peptide Protein Research Ltd)

HVS ORF57^103–120 V112A = target: T6, HVS ORF57^103–120 V112A (Herpesvirus Saimiri, V112A (stands in the printed letters)); assay: NMR titration; […]; 30°C; […], pH 6.2
T6 construct: source: synthetic peptide (Peptide Protein Research Ltd)

## B1
[1]
  binding result: binds

B2: ICP27^103–112 (peptide)
peptide: SVWSRLGARR
notes: HSV-1 ICP27, residues 103-112; the dash in the printed line is an alignment gap; also called WT ICP27^103–112 peptide; source: synthetic peptide (Peptide Protein Research Ltd)
[2]
  Kd: 99 ± 30 µM

B3: HVS ORF57^103–120 (peptide)
peptide: SCKTSWADRVREAAAQRR
notes: also called WT HVS-ORF57^103–120; source: synthetic peptide (Peptide Protein Research Ltd)
[2]
  Kd: 45 ± 15 µM

B4: VZV ORF4^108–119 (peptide)
peptide: TGYARIERGHRR
notes: also called VZV-ORF4^108–119 peptide; source: synthetic peptide (Peptide Protein Research Ltd)
[2]
  Kd: > 1000 µM

B5: ICP27^103–110 (peptide)
peptide: SVWSRLGA
notes: HSV-1 ICP27, residues 103-110; the dash in the printed line is an alignment gap; also called WT ICP27^103–110 peptide; source: synthetic peptide (Peptide Protein Research Ltd)
[2]
  Kd: 25 ± 7 µM

B6: KSHV ORF57^100–110 (peptide)
peptide: NRYGKKIKFGT
notes: also called KSHV-ORF57^100–110 peptide; source: synthetic peptide (Peptide Protein Research Ltd)
[2]
  Kd: > 100000 µM

## B7
[1]
  binding result: binds

B8: ICP27^103–138 (peptide)
chain: GPLGSVWSRLGARRPSCSPEQHGGKVARLQPPPTKAQPAR
notes: remainder of the PreScission protease cleavage site; HSV-1 ICP27, residues 103-138; also called WT-ICP27^103–138; ICP27^103–138 WT peptide; source: expressed as GST-fusion from pGEX-6P-1, cleaved by PreScission protease on GSH resin, purified (Sephacryl S-100 HR); not shown: GST, N-terminal, cleaved
[2]
  Kd: 28 ± 8.7 µM

B9: ICP27^103–138 S114E (peptide)
chain: GPLGSVWSRLGARRPECSPEQHGGKVARLQPPPTKAQPAR
notes: remainder of the PreScission protease cleavage site; HSV-1 ICP27, residues 103-138 with S114E (mimic of phosphoserine 114); source: expressed as GST-fusion from pGEX-6P-1, cleaved by PreScission protease on GSH resin, purified (Sephacryl S-100 HR); not shown: GST, N-terminal, cleaved
[2]
  Kd: 17 ± 7.9 µM

B10: HVS ORF57^105–115 (peptide)
peptide: KTSWADRVREA
notes: also called WT HVS-ORF57^105–115; WT-ORF57^105–115; source: synthetic peptide (Peptide Protein Research Ltd)
[2]
  Kd: > 1000 µM

## B11
[3]
  binding result: binds
[4]
  Kd: 78 ± 12 µM
ICP27^103–112 W105A
  Kd: 550 ± 210 µM
ICP27^103–112 R107A
  Kd: > 10000 µM
ICP27^103–112 L108A
  Kd: > 5000 µM
HVS ORF57^103–120 W108A
  Kd: > 7500 µM
HVS ORF57^103–120 R111A
  Kd: 254 ± 50 µM
HVS ORF57^103–120 V112A
  Kd: 156 ± 32 µM
